Key:
[1] = target: the molecule itself; test: not stated; oligomeric assembly of LH3 N223S, Supplementary Fig. 11B; method not given
[2] = target: the molecule itself; test: SEC-SAXS; 50 uL LH3 at 4 mg/mL on Superdex 200 PC 3.2/300 Increase, 25 mM HEPES/NaOH, 200 mM NaCl, pH 8.0, online SAXS at ESRF BM29
[3] = target: the molecule itself; test: SEC; analytical size exclusion, Superdex 200 5/150 GL, 25 mM HEPES/NaOH, 200 mM NaCl, pH 8.0

B1: LH3 N223S pathogenic variant (enzyme, human, UniProt O60568 25-738, looked up)
chain: SDRPRGRDPVNPEKLLVITVATAETEGYLRFLRSAEFFNYTVRTLGLGEEWRGGDVARTVGGGQKVRWLKKEMEKYADREDMIIMFVDSYDVILAGSPTELLKKFVQSGSRLLFSAESFCWPEWGLAEQYPEVGTGKRFLNSGGFIGFATTIHQIVRQWKYKDDDDDQLFYTRLYLDPGLREKLSLNLDHKSRIFQNLSGALDEVVLKFDRNRVRIRNVAYDTLPIVVHGNGPTKLQLNYLGNYVPNGWTPEGGCGFCNQDRRTLPGGQPPPRVFLAVFVEQPTPFLPRFLQRLLLLDYPPDRVTLFLHNNEVFHEPHIADSWPQLQDHFSAVKLVGPEEALSPGEARDMAMDLCRQDPECEFYFSLDADAVLTNLQTLRILIEENRKVIAPMLSRHGKLWSNFWGALSPDEYYARSEDYVELVQRKRVGVWNVPYISQAYVIRGDTLRMELPQRDVFSGSDTDPDMAFCKSFRDKGIFLHLSNQHEFGRLLATSRYDTEHLHPDLWQIFDNPVDWKEQYIHENYSRALEGEGIVEQPCPDVYWFPLLSEQMCDELVAEMEHYGQWSGGRHEDSRLAGGYENVPTVDIHMKQVGYEDQWLQLLRTYVGPMTESLFPGYHTKARAVMNFVVRYRPDEQPSLRPHHDSSTFTLNVALNHKGLDYEGGGCRFLRYDCVISSPRKGWALLHPGRLTHYHEGLPTTWGTRYIMVSFVDP
notes: human LH3 (PLOD3), GenBank BC011674.2, devoid of the N-terminal signal peptide, with the pathogenic mutation N223S; The mutation was reported to add an N-linked glycosylation on Asn221; not shown: 6xHis, N-terminal, cleaved
stoichiometry N [1]: 2

B2: human lysyl hydroxylase 3 (LH3/PLOD3), wild type (enzyme, UniProt O60568 25-738, looked up)
chain: SDRPRGRDPVNPEKLLVITVATAETEGYLRFLRSAEFFNYTVRTLGLGEEWRGGDVARTVGGGQKVRWLKKEMEKYADREDMIIMFVDSYDVILAGSPTELLKKFVQSGSRLLFSAESFCWPEWGLAEQYPEVGTGKRFLNSGGFIGFATTIHQIVRQWKYKDDDDDQLFYTRLYLDPGLREKLSLNLDHKSRIFQNLNGALDEVVLKFDRNRVRIRNVAYDTLPIVVHGNGPTKLQLNYLGNYVPNGWTPEGGCGFCNQDRRTLPGGQPPPRVFLAVFVEQPTPFLPRFLQRLLLLDYPPDRVTLFLHNNEVFHEPHIADSWPQLQDHFSAVKLVGPEEALSPGEARDMAMDLCRQDPECEFYFSLDADAVLTNLQTLRILIEENRKVIAPMLSRHGKLWSNFWGALSPDEYYARSEDYVELVQRKRVGVWNVPYISQAYVIRGDTLRMELPQRDVFSGSDTDPDMAFCKSFRDKGIFLHLSNQHEFGRLLATSRYDTEHLHPDLWQIFDNPVDWKEQYIHENYSRALEGEGIVEQPCPDVYWFPLLSEQMCDELVAEMEHYGQWSGGRHEDSRLAGGYENVPTVDIHMKQVGYEDQWLQLLRTYVGPMTESLFPGYHTKARAVMNFVVRYRPDEQPSLRPHHDSSTFTLNVALNHKGLDYEGGGCRFLRYDCVISSPRKGWALLHPGRLTHYHEGLPTTWGTRYIMVSFVDP
modifications: N-linked glycosylations at Asn63 and Asn548
notes: a vector signal peptide, 6xHis tag and TEV site precede the BamHI site, so a few vector residues may remain after TEV cleavage; also called wild-type LH3; full-length human LH3; not shown: 6xHis, N-terminal, cleaved
stoichiometry N [2]: 2

B3: LH3 L715D mutant (enzyme, human, UniProt O60568 25-738, looked up)
chain: SDRPRGRDPVNPEKLLVITVATAETEGYLRFLRSAEFFNYTVRTLGLGEEWRGGDVARTVGGGQKVRWLKKEMEKYADREDMIIMFVDSYDVILAGSPTELLKKFVQSGSRLLFSAESFCWPEWGLAEQYPEVGTGKRFLNSGGFIGFATTIHQIVRQWKYKDDDDDQLFYTRLYLDPGLREKLSLNLDHKSRIFQNLNGALDEVVLKFDRNRVRIRNVAYDTLPIVVHGNGPTKLQLNYLGNYVPNGWTPEGGCGFCNQDRRTLPGGQPPPRVFLAVFVEQPTPFLPRFLQRLLLLDYPPDRVTLFLHNNEVFHEPHIADSWPQLQDHFSAVKLVGPEEALSPGEARDMAMDLCRQDPECEFYFSLDADAVLTNLQTLRILIEENRKVIAPMLSRHGKLWSNFWGALSPDEYYARSEDYVELVQRKRVGVWNVPYISQAYVIRGDTLRMELPQRDVFSGSDTDPDMAFCKSFRDKGIFLHLSNQHEFGRLLATSRYDTEHLHPDLWQIFDNPVDWKEQYIHENYSRALEGEGIVEQPCPDVYWFPLLSEQMCDELVAEMEHYGQWSGGRHEDSRLAGGYENVPTVDIHMKQVGYEDQWLQLLRTYVGPMTESLFPGYHTKARAVMNFVVRYRPDEQPSLRPHHDSSTFTLNVALNHKGLDYEGGGCRFLRYDCVISSPRKGWALLHPGRDTHYHEGLPTTWGTRYIMVSFVDP
notes: human LH3 (PLOD3), GenBank BC011674.2, devoid of the N-terminal signal peptide, with L715D; not shown: 6xHis, N-terminal, cleaved
binding result [3]: binds

B4: LH3 W148N-L150T glycosylated control mutant (enzyme, human, UniProt O60568 25-738, looked up)
chain: SDRPRGRDPVNPEKLLVITVATAETEGYLRFLRSAEFFNYTVRTLGLGEEWRGGDVARTVGGGQKVRWLKKEMEKYADREDMIIMFVDSYDVILAGSPTELLKKFVQSGSRLLFSAESFCWPENGTAEQYPEVGTGKRFLNSGGFIGFATTIHQIVRQWKYKDDDDDQLFYTRLYLDPGLREKLSLNLDHKSRIFQNLNGALDEVVLKFDRNRVRIRNVAYDTLPIVVHGNGPTKLQLNYLGNYVPNGWTPEGGCGFCNQDRRTLPGGQPPPRVFLAVFVEQPTPFLPRFLQRLLLLDYPPDRVTLFLHNNEVFHEPHIADSWPQLQDHFSAVKLVGPEEALSPGEARDMAMDLCRQDPECEFYFSLDADAVLTNLQTLRILIEENRKVIAPMLSRHGKLWSNFWGALSPDEYYARSEDYVELVQRKRVGVWNVPYISQAYVIRGDTLRMELPQRDVFSGSDTDPDMAFCKSFRDKGIFLHLSNQHEFGRLLATSRYDTEHLHPDLWQIFDNPVDWKEQYIHENYSRALEGEGIVEQPCPDVYWFPLLSEQMCDELVAEMEHYGQWSGGRHEDSRLAGGYENVPTVDIHMKQVGYEDQWLQLLRTYVGPMTESLFPGYHTKARAVMNFVVRYRPDEQPSLRPHHDSSTFTLNVALNHKGLDYEGGGCRFLRYDCVISSPRKGWALLHPGRLTHYHEGLPTTWGTRYIMVSFVDP
modifications: additional glycosylation at the compact N-terminal (crystal contact) interface, introduced by W148N-L150T
notes: human LH3 (PLOD3), GenBank BC011674.2, devoid of the N-terminal signal peptide, with W148N and L150T; not shown: 6xHis, N-terminal, cleaved
stoichiometry N [3]: 2
